Results as given in patent US20160264649A1.

Key:
Assay in all cases: cell-based or functional assay
[1] = molecular target: HIV-1 MGRM-A-007 Env (HIV-1)
[2] = molecular target: HIV-1 MGRM-A-011 Env (HIV-1)
[3] = molecular target: HIV-1 92RW024 Env (HIV-1)
[4] = molecular target: HIV-1 92RW021 Env (HIV-1)
[5] = molecular target: HIV-1 92UG037 Env (HIV-1)
[6] = molecular target: HIV-1 MGRM-A-008 Env (HIV-1)
[7] = molecular target: HIV-1 MGRM-A-012 Env (HIV-1)
[8] = molecular target: HIV-1 92RW026 Env (HIV-1)
[9] = molecular target: HIV-1 MGRM-A-003 Env (HIV-1)
[10] = molecular target: HIV-1 MGRM-A-013 Env (HIV-1)
[11] = molecular target: HIV-1 92RW008 Env (HIV-1)
[12] = molecular target: HIV-1 MGRM-A-009 Env (HIV-1)
[13] = molecular target: HIV-1 MGRM-A-001 Env (HIV-1)
[14] = molecular target: HIV-1 92UG031 Env (HIV-1)
[15] = molecular target: HIV-1 92RW009 Env (HIV-1)
[16] = molecular target: HIV-1 MGRM-A-014 Env (HIV-1)
[17] = molecular target: HIV-1 MGRM-A-004 Env (HIV-1)
[18] = molecular target: HIV-1 MGRM-A-005 Env (HIV-1)
[19] = molecular target: HIV-1 MGRM-A-006 Env (HIV-1)
[20] = molecular target: HIV-1 93UG077 Env (HIV-1)
[21] = molecular target: HIV-1 94KE105 Env (HIV-1)
[22] = molecular target: HIV-1 94UG103 Env (HIV-1)
[23] = molecular target: HIV-1 MGRM-F1-013 Env (HIV-1)

Substance	neutralization IC50 [1] [µg/mL]	neutralization IC50 [2] [µg/mL]	neutralization IC50 [3] [µg/mL]	neutralization IC50 [4] [µg/mL]	neutralization IC50 [5] [µg/mL]	neutralization IC50 [6] [µg/mL]	neutralization IC50 [7] [µg/mL]	neutralization IC50 [8] [µg/mL]	neutralization IC50 [9] [µg/mL]	neutralization IC50 [10] [µg/mL]	neutralization IC50 [11] [µg/mL]	neutralization IC50 [12] [µg/mL]	neutralization IC50 [13] [µg/mL]	neutralization IC50 [14] [µg/mL]	neutralization IC50 [15] [µg/mL]	neutralization IC50 [16] [µg/mL]	neutralization IC50 [17] [µg/mL]	neutralization IC50 [18] [µg/mL]	neutralization IC50 [19] [µg/mL]	neutralization IC50 [20] [µg/mL]	other results
1495_C14 (PGC14) (antibody)	> 50	> 50	> 50	> 50	> 50	> 50	> 50	> 50	> 50	> 50	37	> 50	> 50	> 50	> 50	> 50	> 50	> 50	> 50	> 50	neutralization IC50 [21]: > 50 µg/mL; neutralization IC50 [22]: > 50 µg/mL; IC50 (pseudovirus neutralization) [23]: 6 µg/mL
b12 (antibody)	> 50	4.01	> 50	> 50	> 50	> 50	> 50	> 50	> 50	7.04	9.46	4.34	> 50	> 50	> 50	> 50	> 50	3.64	13.6	47	neutralization IC50 [21]: > 50 µg/mL; neutralization IC50 [22]: 6.92 µg/mL; IC50 (pseudovirus neutralization) [23]: > 50 µg/mL
